Laboratory results from patent US20040235717A1 (published 2004).

T1: androgen receptor, wild type, full length (UniProt P10275 1-920)
T1 construct: also called AR; wtAR
T1 sequence (looked up): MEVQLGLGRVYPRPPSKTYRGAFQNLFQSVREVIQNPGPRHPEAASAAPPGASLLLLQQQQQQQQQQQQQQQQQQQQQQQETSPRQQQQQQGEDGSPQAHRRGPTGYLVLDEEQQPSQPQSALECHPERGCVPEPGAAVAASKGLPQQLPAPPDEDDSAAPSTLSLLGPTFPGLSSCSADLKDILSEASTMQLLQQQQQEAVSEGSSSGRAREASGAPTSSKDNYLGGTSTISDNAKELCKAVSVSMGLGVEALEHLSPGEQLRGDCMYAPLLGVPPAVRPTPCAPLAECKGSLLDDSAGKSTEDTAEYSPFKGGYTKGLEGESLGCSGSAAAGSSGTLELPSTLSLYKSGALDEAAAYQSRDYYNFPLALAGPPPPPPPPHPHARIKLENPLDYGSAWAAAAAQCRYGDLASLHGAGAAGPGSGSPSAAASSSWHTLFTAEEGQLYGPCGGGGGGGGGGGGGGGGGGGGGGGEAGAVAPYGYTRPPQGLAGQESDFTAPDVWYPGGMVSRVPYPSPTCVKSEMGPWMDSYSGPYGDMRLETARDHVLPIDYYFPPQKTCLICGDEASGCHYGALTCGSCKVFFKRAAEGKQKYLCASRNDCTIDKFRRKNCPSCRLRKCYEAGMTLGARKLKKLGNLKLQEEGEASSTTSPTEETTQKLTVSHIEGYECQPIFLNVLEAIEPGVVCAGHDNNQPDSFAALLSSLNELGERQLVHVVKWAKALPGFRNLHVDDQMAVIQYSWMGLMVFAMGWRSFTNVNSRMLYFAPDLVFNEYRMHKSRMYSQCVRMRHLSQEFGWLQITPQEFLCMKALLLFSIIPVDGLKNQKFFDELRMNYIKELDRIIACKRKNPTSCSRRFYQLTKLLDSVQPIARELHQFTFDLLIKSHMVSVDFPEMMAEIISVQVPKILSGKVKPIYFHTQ

B1: PTEN (phosphatase and tensin homolog deleted on chromosome ten), wild type, full length (enzyme)
chain: not shown
notes: Stood as in vitro expressed 35S-PTEN, as Dox-induced PTEN in LNCaP PTEN-C1 cells, as endogenous PTEN of CWR22 cells and as transfected PTEN in COS-1 cells; also called [35S]-PTEN; pCDNA3-PTEN
B2: GST-PTEN-#3 (aa 253-403) (other, UniProt P60484 253-403, looked up)
chain: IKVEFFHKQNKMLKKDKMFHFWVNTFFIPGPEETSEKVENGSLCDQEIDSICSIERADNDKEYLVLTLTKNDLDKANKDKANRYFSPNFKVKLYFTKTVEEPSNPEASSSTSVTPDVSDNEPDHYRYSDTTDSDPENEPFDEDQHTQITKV
notes: range 253-403; not shown: glutathione S-transferase (GST), pGEX-3x vector
B3: N-terminal Flag-tagged, full-length Smad3 (other, human, UniProt P84022 1-425, looked up)
chain: MSSILPFTPPIVKRLLGWKKGEQNGQEEKWCEKAVKSLVKKLKKTGQLDELEKAITTQNVNTKCITIPRSLDGRLQVSHRKGLPHVIYCRLWRWPDLHSHHELRAMELCEFAFNMKKDEVCVNPYHYQRVETPVLPPVLVPRHTEIPAEFPPLDDYSHSIPENTNFPAGIEPQSNIPETPPPGYLSEDGETSDHQMNHSMDAGSPNLSPNPMSPAHNNLDLQPVTYCEPAFWCSISYYELNQRVGETFHASQPSMTVDGFTDPSNSERFCLGLLSNVNRNAAVELTRRHIGRGVRLYYIGGEVFAECLSDSAIFVQSPNCNQRYGWHPATVCKIPPGCNLKIFNNQEFAALLAQSVNQGFEAVYQLTRMCTIRMSFVKGWGAEYRRQTVTSTPCWIELHLNGPLQWLDKVLTQMGSPSIRCSSVS
notes: Expressed in PC-3 or PC-3(AR)2 cells; also called Flag-Smad3; FLAG-Smad3; not shown: N-terminal Flag tag
B4: Smad3 (full length, untagged) (other, human, UniProt P84022 1-425, looked up)
chain: B3 chain
notes: also called endogenous Smad3; [35S]-labeled Smad3
B5: GST-PTEN-#1 (aa 1-107) (other, UniProt P60484 1-107, looked up)
chain: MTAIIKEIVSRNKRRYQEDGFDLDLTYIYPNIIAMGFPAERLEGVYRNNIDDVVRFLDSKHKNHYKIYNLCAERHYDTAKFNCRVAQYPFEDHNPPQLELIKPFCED
notes: not shown: glutathione S-transferase (GST), pGEM-KG vector
B6: N-terminal Flag-tagged, full-length Smad4 (other, human, UniProt Q13485 1-552, looked up)
chain: MDNMSITNTPTSNDACLSIVHSLMCHRQGGESETFAKRAIESLVKKLKEKKDELDSLITAITTNGAHPSKCVTIQRTLDGRLQVAGRKGFPHVIYARLWRWPDLHKNELKHVKYCQYAFDLKCDSVCVNPYHYERVVSPGIDLSGLTLQSNAPSSMMVKDEYVHDFEGQPSLSTEGHSIQTIQHPPSNRASTETYSTPALLAPSESNATSTANFPNIPVASTSQPASILGGSHSEGLLQIASGPQPGQQQNGFTGQPATYHHNSTTTWTGSRTAPYTPNLPHHQNGHLQHHPPMPPHPGHYWPVHNELAFQPPISNHPAPEYWCSIAYFEMDVQVGETFKVPSSCPIVTVDGYVDPSGGDRFCLGQLSNVHRTEAIERARLHIGKGVQLECKGEGDVWVRCLSDHAVFVQSYYLDREAGRAPGDAVHKIYPSAYIKVFDLRQCHRQMQQQAATAQAAAAAQAAAVAGNIPGPGSVGGIAPAISLSAAAGIGVDDLRRLCILRMSFVKGWGPDYPRQSIKETPCWIEIHLHRALQLLDEVLHTMPIADPQPLD
notes: Expressed in PC3-AR2 cells; also called Flag-Smad4; FLAG-Smad4; not shown: N-terminal Flag tag

Tests used:
[1] = target: T1, androgen receptor, wild type, full …; test: co-immunoprecipitation in prostate cancer cells
[2] = target: T1, androgen receptor, wild type, full …; test: GST pull-down of 35S-AR with PTEN deletion mutants
[3] = target: T1, androgen receptor, wild type, full …; test: co-immunoprecipitation in PC-3(AR)2 cells overexpressing Flag-Smad3, Flag-Smad4 and AR
[4] = target: T1, androgen receptor, wild type, full …; test: anti-Smad3 immunoprecipitation from PC-3(AR)2 cells, immunoblot for AR

Binder	binding result [2]	binding result [3]	also measured
B1	–	–	binding result [1]: binds
B2	no binding	–	–
B3	–	binds	–
B4	–	–	binding result [4]: binds
B5	no binding	–	–
B6	–	binds	–
